The assay addresses C3b (human) (UniProt P01024). Kind of assay: SPR; Biacore T200; about 2488 RU of C3b immobilised by amine coupling on a CM5 chip; CFHR3 injected in duplicate at 10-300 ug/ml; 25 °C, 30 ul/min; 10 mM Hepes-buffered saline, 3 mM ENTA (so in the source), 0.05% surfactant p20; wild type: KD from rate constants, mutant: steady-state affinity fit.

Substance “mutant recombinant CFHR3 Arg142Cys (rs61737525, c.424 C > T) (from UniProt Q02985 19-330) (natural protein)” yielded a Kd of 18 µM.

In the case of “wild-type recombinant CFHR3 (complement factor H-related protein 3) (from UniProt Q02985 19-330) (natural protein)”, the Kd was found to be 0.15 µM, the koff turned out to be 0.00128 s⁻¹ and the kon was 8350 M⁻¹ s⁻¹.

(Values after paper PMC5519609.)
